Results reported in patent US12545707 (UNIVERSITY OF DELAWARE, dated 2026).
*: point of attachment. TAMRA = 5(6)-carboxytetramethylrhodamine amide on Lys NZ; Butanoyl(4-maleimido) = O=C1C=CC(=O)N1CCCC(=O)*; NBD = O=[N+]([O-])c1ccc(*)c2nonc12

Legend:
[1] = target: the molecule itself; assay: self-association of the peptide into a homotetrameric coiled coil bundle; TEM, cryoTEM and SANS of the linked bundle chains
Description: Transmission Electron Microscopy (TEM): Carbon-coated 200 mesh copper grids (CF200-Cu, Electron Microscopy Sciences, Inc.) were freshly treated by glow discharge using a plasma cleaner (PDC-32G, Harrica Plasma, Inc.) at low level for 20 seconds. Then, 4 µL sample solution was dropped on the grid. After 1 min, the remaining liquid was blotted from the edge of the grid using filter paper. The grid was allowed to air-dry for 10 min before TEM observation on FEI TALOS™ F200C microscope. For negative staining, 6 µL aqueous solution of phosphotungstic acid (2 w/v %, pH 6) was applied to the dried grid and incubated for 15-30 seconds. Then the grid was blotted with filter paper. The stained grid was allowed to sit for 10 min before TEM observation.

[2] = target: the molecule itself; assay: self-association of the dye-labelled peptide into a tetrameric bundle; STORM imaging of the rods
Description: With these rigid-rod molecules, the local amino acid sequence along the rods is determined via computational design. With this specified sequence, robust bundle physical assembly, and subsequent covalent polymer formation, one can display desired functionality locally within the polymer chain. High-resolution fluorescence microscopy provides the tool for observation of rigid-rod polymers synthesized with fluorophores attached to specific lysine side chains. Rods with targeted lengths of ~50 nm were first assembled using the same parent peptides as described in FIG. 33 with the short rod termini consisting of bundles displaying thiol functionality (FIG. 33A, more description in Methods). The maleimide-terminated peptides used in the short rod syntheses were functionalized with a desired fluorescent dye (rhodamine; nitrobenzofurazan (NBD); see FIG. 35A). […] After short rod synthesis with desired dye incorporation, separate populations of short red rods and short green rods were mixed together along with individual bundles with maleimide termini and no dye (FIG. 33A and FIG. 35A) in order to link the short, dyed rods together into longer rigid-rod chains. […] The sub-optical wavelength resolution of the STORM technique (stochastic optical reconstruction microscopy) allows clear observation of the ~50 nm long, individual rod segments within final, longer rods. […]

B1: Peptide 1 (maleimide-functionalized bundle-forming peptide, SEQ ID NO: 3) (peptide)
peptide: {Butanoyl(4-maleimido)}-DEKIKNMADQIKHMAWMIDRMAEKIDREA-NH2
modifications: not fully specified (residue 1)
notes: Four copies associate non-covalently into an antiparallel homotetrameric coiled coil bundle; also called P622-A6-1; maleimide-containing peptide
[1]
  binding result: binds

B2: Peptide 2 (bundle-forming peptide with N-terminal cysteine, SEQ ID NO: 1) (peptide)
peptide: H-CDEEIRRMAEEIRQMAERIQQMAEQIQQEA-NH2
modifications: not fully specified
notes: Four copies associate non-covalently into an antiparallel homotetrameric coiled coil bundle; also called 4459a-C; thiol-containing peptide
[1]
  binding result: binds

## {Butanoyl(4-maleimido)}-DEKIKNMADQIKHMAWMIDRMAEK(TAMRA)IDREA-NH2 (not fully specified (residue 1), also called red dye peptide) [Peptide 4 (SEQ ID NO: 3, maleimide N-terminus, tetramethylrhodamine dye on a lysine side chain)]
[2]
  binding result: binds

## {Butanoyl(4-maleimido)}-DEKIKNMADQIKHMAWMIDRMAEK(NBD)IDREA-NH2 (not fully specified (residue 1), also called green dye peptide) [Peptide 3 (SEQ ID NO: 3, maleimide N-terminus, nitrobenzofurazan dye on a lysine side chain)]
[2]
  binding result: binds
